Series [1] has as its system Rev (D36) (HIV-1, SBBC subject D36). In words: EMSA. Particulars: 10 mM HEPES/KOH pH 7.6, 150 mM KCl, 2 mM MgCl2, 0.5 mM EGTA, 1 mM DTT, 20% glycerol, 3.2 ug E. coli tRNA in 10 ul; excess RNA, protein 0-0.50 uM; 10 min on ….
For series [2], the system named is Rev (C64) (HIV-1, SBBC subject C64). Kind of series: EMSA. As to conditions: 10 mM HEPES/KOH pH 7.6, 150 mM KCl, 2 mM MgCl2, 0.5 mM EGTA, 1 mM DTT, 20% glycerol, 3.2 ug E. coli tRNA in 10 ul; excess RNA, protein 0-0.50 uM; 10 min on …. For orientation: In EMSA bound probe runs differently from free probe, usually more slowly.

In the case of RRE riboprobe, the binding signal (% reduction vs NL4-3 Rev) in series [1] and in series [2] was 90 throughout.

The record behind these values is PMC1933581.
